The values that follow come from publication PMC9814759, “Enzymatic kinetic resolution of desmethylphosphinothricin indicates that phosphinic group is a bioisostere of carboxyl group” (Communications Chemistry, 2020).

The term Km denotes the substrate concentration at which the rate is half of its maximum. For orientation: kcat means the maximal rate divided by the concentration of active sites. In general, kcat/Km refers to the turnover number divided by the Michaelis constant.

Substrate in data set [1]: N[C@@H](CCC(=O)O)C(=O)O
In words: purified protein. The data set is classed as biochemical, Escherichia coli. The settings on record: 0.1 M Pyridine/HCl, pH 4.6, 0.1 mM DTT, 40 µM PLP, discontinuous assay.

Substrate in data set [2]: N[C@@H](CC[PH](=O)O)C(=O)O
In words: purified protein. The class given is biochemical, Escherichia coli. The settings on record: 0.1 M Pyridine/HCl, pH 4.6, 0.1 mM DTT, 40 µM PLP, discontinuous assay.

B1: EcGadB (Escherichia coli K-12) (protein)
chain: MDKKQVTDLRSELLDSRFGAKSISTIAESKRFPLHEMRDDVAFQIINDELYLDGNARQNLATFCQTWDDENVHKLMDLSINKNWIDKEEYPQSAAIDLRCVNMVADLWHAPAPKNGQAVGTNTIGSSEACMLGGMAMKWRWRKRMEAAGKPTDKPNLVCGPVQICWHKFARYWDVELREIPMRPGQLFMDPKRMIEACDENTIGVVPTFGVTYTGNYEFPQPLHDALDKFQADTGIDIDMHIDAASGGFLAPFVAPDIVWDFRLPRVKSISASGHKFGLAPLGCGWVIWRDEEALPQELVFNVDYLGGQIGTFAINFSRPAGQVIAQYYEFLRLGREGYTKVQNASYQVAAYLADEIAKLGPYEFICTGRPDEGIPAVCFKLKDGEDPGYTLYDLSERLRLRGWQVPAFTLGGEATDIVVMRIMCRRGFEMDFAELLLEDYKASLKYLSDHPKLQGIAQQNSFKHT
notes: expressed and purified EcGadB (DEAE chromatography); no tag stated; PLP-dependent homohexamer; EC 4.1.1.15
With B1, in the data set “purified protein [1]”, the Km is listed as 0.84 ± 0.09 mM, the kcat stood at 78.2 ± 2.06 s⁻¹ and the kcat/Km was 92800 ± 10300 M⁻¹ s⁻¹. Moreover, in the data set “purified protein [2]”, the Km stood at 39.82 ± 5.66 mM, the kcat worked out at 13.9 ± 0.58 s⁻¹ and the kcat/Km was determined as 350 ± 50 M⁻¹ s⁻¹.
